Measurements as given in WO2008118324A2 (dated 2008).

Legend:
[1] = molecular target: T1, human UPK-Ib expressed on the surface of cells (human, UniProt O75841 1-260); assay: flow cytometry on a transitional cell carcinoma line
T1 construct: whole, on cells; also called uroplakin Ib; UPK-1
T1 sequence (looked up): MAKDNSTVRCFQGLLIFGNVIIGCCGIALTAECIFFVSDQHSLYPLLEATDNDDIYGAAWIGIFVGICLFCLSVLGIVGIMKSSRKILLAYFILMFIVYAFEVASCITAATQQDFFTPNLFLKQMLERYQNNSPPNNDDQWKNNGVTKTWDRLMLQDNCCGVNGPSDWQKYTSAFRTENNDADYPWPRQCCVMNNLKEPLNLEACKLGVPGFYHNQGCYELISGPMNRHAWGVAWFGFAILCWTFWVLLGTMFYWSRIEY

[2] = molecular target: T1, human UPK-Ib expressed on the surface …; assay: flow cytometry, antibody at 2 ug/mL on A549 and EKVX cells

B1: 5H9 monoclonal antibody (murine) (antibody, V domains shown)
VH: EVQLVESGGGLVQPKGSLKLSCAASGFSFNTYAMNWVRQAPGKGLEWVARIRSKSNNYATYYADSVKDRFTISRDDSESMLYLQMNNLKTEDTAMYYCVRQGDGYYVGWFAYWGQGTLVTVSA
VL: DIQMTQTTSSLSASLGDRVTISCRASQDISNYLNWYQQKPDGTVKLLIYYTSRLHSGVPSRFSGSGSGTDYSLTISNLEQEDIATYFCQQGNTLPFTFGSGTKLEIK
notes: Mouse (BALB/c) hybridoma antibody, tested as culture supernatant and detected with anti-mouse IgG; also called 5H9 MAb; murine 5H9
binding result [1]: binds

B2: chimeric 1G9 containing the enhancing Fc mutant (antibody, V domains shown)
VH: QVQLQQPGAELVRPGSSVKVSCKASGYTFSSYWMHWVKQRPIQGLEWIGNIDPSDSETHYNQKFKDKATLTVDKSSSTAYMQLSSLTSEDSAVYYCARSGAGTGPWLAYWGQGTLVTVSA
VL: DIVMTQSPSSLTVTAGEKVTMTCKSSQSLLNSGNQKNYLTWYQQKPGQPPNPLIYWASTRESGVPDRFTGSGSGTDFTLTISSVQAEDLAVYYCQNDYSYPFTFGSGTKLEIKR
notes: domain: C-kappa segment; They are not tied to this construct; also called chlG9-mut; chlG9 Fc mut; not shown: human IgG1 constant region carrying the 'enhancing Fc mutant'
binding result [2]: binds

B3: 1G9 monoclonal antibody (murine) (antibody, V domains shown)
VH: QVQLQQPGAELVRPGSSVKVSCKASGYTFSSYWMHWVKQRPIQGLEWIGNIDPSDSETHYNQKFKDKATLTVDKSSSTAYMQLSSLTSEDSAVYYCARSGAGTGPWLAYWGQGTLVTVSA
VL: DIVMTQSPSSLTVTAGEKVTMTCKSSQSLLNSGNQKNYLTWYQQKPGQPPNPLIYWASTRESGVPDRFTGSGSGTDFTLTISSVQAEDLAVYYCQNDYSYPFTFGSGTKLEIK
notes: Mouse (BALB/c) hybridoma antibody, tested as culture supernatant and detected with anti-mouse IgG; also called 1G9 MAb
binding result [1]: binds
